Measured values as given in the RNAGym collection of RNA variant scans (doi:10.7554/elife.90254).

B1: LINE1-mini (parent)
chain: GGCAGAGCUCAACACAGCGUGGCAAAGUGGCUGUGGCUAGACUGCC

Variants of: B1
Test: self-cleavage, relative activity (ratio to wild type); higher = more cleavage; in vitro, sequencing; the parent is a self-cleaving ribozyme

Row | Variant | self-cleavage
1 | G2A A14U | 0.37
2 | C46A | 0.9
3 | G36A C37A | 0.11
4 | G36C A39C | 0.05
5 | G36U A41C | 0.05
6 | U32G A41U | 0.07
7 | G22U G33C | 0.07
8 | G2U G44U | 0.06
9 | G27U G30U | 1.53
10 | A26U G30A | 1.56
11 | G40C G44A | 0.12
12 | G30C G44U | 0.09
13 | A6U C10U | 0.12
14 | C10U C31A | 0.13
15 | G27U G29U | 1.03
16 | C18A G40C | 0.03
17 | G19U U43A | 0.06
18 | C3U A26U | 0.67
19 | G17U A39U | 0.2
20 | U32C G44C | 0.09
21 | A16G G22C | 0.1
22 | C18A G22A | 1.07
23 | A25G G29A | 0.32
24 | A16U U34A | 0.04

Row | Variant | self-cleavage
25 | A11C U32G | 0.03
26 | C10U G35A | 0.08
27 | C15U U32C | 0.08
28 | G5C A6C | 0.23
29 | G30C U34C | 0.12
30 | C3U G35A | 0.22
31 | C10A A11G | 0.03
32 | C3A G40A | 0.16
33 | A12C C42A | 0.03
34 | A14U C46G | 0.19
35 | C15A A16C | 0.08
36 | C8A G29C | 0.14
37 | A16G G35U | 0.11
38 | A39G A41U | 0.07
39 | A11G G35A | 0.05
40 | C37U C45G | 0.08
41 | G19C U43A | 0.02
42 | A4C U32C | 0.1
43 | G2U C13U | 0.06
44 | G2C A41U | 0.12
45 | G33A G40A | 0.07
46 | U28A C46A | 1.23
47 | G2C C3A | 0.42
48 | U20G U38C | 0.26

Row | Variant | self-cleavage
49 | C13A G40C | 0.07
50 | A11C C37U | 0.02
51 | U20A C31G | 0.08
52 | C10A G36U | 0.04
53 | A25G C45A | 0.86
54 | C10G A11G | 0.03
55 | C15A G40U | 0.06
56 | A26C G40U | 0.09
57 | C8A U20A | 0.14
58 | C10U U38A | 0.04
59 | G19C | 0.5
60 | C23A G33A | 0.78
61 | C3G G5C | 0.58
62 | G7A G19A | 0.26
63 | G7A G30A | 0.24
64 | A25G U38C | 0.14
65 | A12G U28C | 0.02
66 | G36C C37U | 0.06
67 | G19U A24C | 0.73
68 | G2A G17A | 0.2
69 | G19A U34G | 0.29
70 | A26C U38C | 0.83
71 | C18U U34C | 0.07
72 | G21U U34A | 0.12

Row | Variant | self-cleavage
73 | G35A C37A | 0.14
74 | A6G U34G | 0.04
75 | G5A C45G | 0.14
76 | C13G A26G | 0.08
77 | C13G A26C | 0.27
78 | A12U G22U | 0.29
79 | A4U A12G | 0.05
80 | G21U G35A | 0.16
81 | A11C A14G | 0.04
82 | A4C G21A | 0.42
83 | A4C G21U | 0.21
84 | A14U G21C | 0.57
85 | G1C G29A | 0.16
86 | G1U U38G | 0.03
87 | A11C G33C | 0.02
88 | C23G C46U | 1
89 | G7C C37G | 0.03
90 | A11U C15A | 0.03
91 | C8U G33A | 0.15
92 | A16U U32C | 0.18
93 | A26C G33A | 0.17
94 | A12G C37U | 0.04
95 | G19C G36A | 0.09
96 | C18G A39C | 0.06

Row | Variant | self-cleavage
97 | G29U G40C | 0.14
98 | G5U U9G | 0.11
99 | G1C U38A | 0.05
100 | G1U A24U | 0.32
101 | A16C C42G | 0.09
102 | A4U G27U | 0.14
103 | A16U G21C | 0.27
104 | C37U A41G | 0.04
105 | G1U G27C | 0.27
106 | A11C A26G | 0.05
107 | C23G U34G | 0.23
108 | G2U A39C | 0.03
109 | A16C U32C | 0.09
110 | G2C A16U | 0.04
111 | C3A G30U | 0.61
112 | C3U G29A | 0.26
113 | G29A G36U | 0.09
114 | G35U G44A | 0.13
115 | C23G U32A | 0.07
116 | G17U G40A | 0.05
117 | A4G U28C | 1.09
118 | A11C G36U | 0.01
119 | U9C G29U | 0.03
120 | A6C U28A | 0.64

Row | Variant | self-cleavage
121 | G17U U43A | 0.09
122 | G5U C10U | 0.06
123 | G1U A12C | 0.02
124 | C8A U9A | 0.24
125 | G17U A41G | 0.08
126 | G1A A12C | 0.04
127 | G22C G44A | 0.13
128 | U34A C37A | 0.08
129 | G5U A24C | 0.08
130 | C8G G19C | 0.05
131 | U20G C46A | 0.78
132 | C3G U34A | 0.08
133 | C8A G30U | 0.59
134 | G17A A25U | 0.24
135 | A16C G17C | 0.12
136 | A16G C42G | 0.03
137 | G1U U20A | 0.31
138 | A16U U28G | 0.22
139 | G5C C15G | 0.03
140 | G40A C42A | 0.1
141 | C23U G36C | 0.07
142 | C18U G35U | 0.08
143 | G5U G35A | 0.08
144 | G2A C15A | 0.31

Row | Variant | self-cleavage
145 | C8U A41U | 0.47
146 | G1U C23U | 0.31
147 | U28A A39G | 0.05
148 | C18U A24U | 0.97
149 | C3G A6C | 0.27
150 | A12C A14C | 0.02
151 | G1U G22A | 0.25
152 | G1C U32A | 0.02
153 | C3U C31A | 0.07
154 | G19A C23U | 1.06
155 | A24G G44A | 1
156 | G27U U32A | 0.07
157 | U34G C37G | 0.07
158 | C3A C18U | 0.49
159 | G2A A11U | 0.12
160 | U20C G22C | 0.19
161 | A25G U43A | 0.13
162 | G2A C8A | 0.61
163 | A26U U32C | 0.11
164 | C15G G36U | 0.04
165 | A6U C23A | 0.9
166 | C3A G36C | 1.01
167 | G22A C46G | 1.22
